These results are taken from US20200148781A1 (HELMHOLTZ ZENTRUM M NCHEN DEUTSCHES FORSCHUNGSZENTRUM F R …, published 2020).

The assay has as its target T1, CD73 protein from lysates of U138 glioblastoma cells (human, UniProt P21589 27-549).
T1 construct: Same endogenous protein as m2, but solubilised in cell lysate for immunoprecipitation
T1 sequence (looked up): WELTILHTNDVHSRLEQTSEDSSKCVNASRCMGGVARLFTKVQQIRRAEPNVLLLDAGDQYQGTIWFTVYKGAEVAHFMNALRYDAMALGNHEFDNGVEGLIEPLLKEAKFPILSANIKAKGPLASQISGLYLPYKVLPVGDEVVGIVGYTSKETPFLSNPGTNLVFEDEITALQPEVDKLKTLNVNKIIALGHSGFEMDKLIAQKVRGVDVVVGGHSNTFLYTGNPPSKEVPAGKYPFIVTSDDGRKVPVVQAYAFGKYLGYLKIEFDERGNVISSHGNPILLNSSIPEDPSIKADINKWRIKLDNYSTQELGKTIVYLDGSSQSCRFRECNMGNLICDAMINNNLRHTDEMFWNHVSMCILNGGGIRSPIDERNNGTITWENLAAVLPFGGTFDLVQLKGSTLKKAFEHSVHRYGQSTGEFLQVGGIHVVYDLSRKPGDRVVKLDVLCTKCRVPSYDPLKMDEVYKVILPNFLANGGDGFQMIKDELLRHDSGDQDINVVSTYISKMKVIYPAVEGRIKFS
Nature of the assay: immunoprecipitation from cell lysate, immunoblot with a commercial CD73 mAb. The procedure:
In this example, mAb 22E6 binding affinity was characterized (FIG. 3). It was shown that mAb 22E6 recognizes CD73 protein on cancer cells. Using a special flow cytometry technique, a fluorescence-activated cell sorting (FACS) with 22E6 and an anti-rat-IgG-specific, fluorophore-labeled secondary mAb, it was shown that the protein recognized by the 22E6 mAb of the invention is present on the surface of human cancer cells of a total of approx. 30 tested cell lines. U138 MG and GBM20 are glioblastoma cell lines, MDA-MB231 and T47D are human breast cancer cell lines. In order to compare the specificity of mAb 22E6 with the specificity of a commercial CD73 mAb an immunoblot with the same cell lines (U138 MG, GBM20, MDA-MB231 and T47D) was performed using the commercial CD73 mAb as shown in FIG. 3B.

B1: mAb 22E6 (antibody, V domains shown)
VH: EVQLVESGGGLVQPGRSMKLSCAASGFTFSFYYMAWVRQAPTKGLEWVASISTGGGNTYYRDSVKGRFTISRDDAKSTLYLQMDSLRSEETATYYCARHGGDYYGYRGGYFDYWDQGVMVTVSS
VL: DIQMTQTPSSMPASLGERVTISCRASQGINNYLNWYQQKPDGTIKPLIYYTSNLQSGVPSRFSGSGSGTDYSLTISSLEPEDFAMYYCQQYDNSPYTFGAGTKLELK
notes: Rat monoclonal antibody from a hybridoma (rats immunized with EVs of the glioblastoma line GBM20); It was detected with an anti-rat-IgG secondary mAb; also called 22E6 mAb; monoclonal antibody termed "22E6"
In the case of B1, the binding result is recorded as “binds”.
